Experimental data published in patent publication US20230227520A1 (MAX PLANCK GESELLSCHAFT ZUR F RDERUNG DER WISSENSCHAFTEN E V, published 2023).
Each block holds one molecule with its values, some of them ahead of it.

Legend:
[1] = molecular target: G-CSFR on NFS-60 cells (murine myeloblastic cell line) (mouse) (UniProt P40223); assay: cell-based or functional assay
[2] = molecular target: T1, G-CSF Receptor (G-CSFR) (R&D systems 381-GR-050/CF), recombinant human (human, UniProt Q99062 25-627, limits assumed); assay: SPR, Biacore X100, G-CSFR amine-coupled on CM5, 2nd order kinetics model, second run
T1 construct: Bought protein, amine-coupled to a CM5 chip; also called rhG-CSFR; human G-CSF receptor
T1 sequence (looked up): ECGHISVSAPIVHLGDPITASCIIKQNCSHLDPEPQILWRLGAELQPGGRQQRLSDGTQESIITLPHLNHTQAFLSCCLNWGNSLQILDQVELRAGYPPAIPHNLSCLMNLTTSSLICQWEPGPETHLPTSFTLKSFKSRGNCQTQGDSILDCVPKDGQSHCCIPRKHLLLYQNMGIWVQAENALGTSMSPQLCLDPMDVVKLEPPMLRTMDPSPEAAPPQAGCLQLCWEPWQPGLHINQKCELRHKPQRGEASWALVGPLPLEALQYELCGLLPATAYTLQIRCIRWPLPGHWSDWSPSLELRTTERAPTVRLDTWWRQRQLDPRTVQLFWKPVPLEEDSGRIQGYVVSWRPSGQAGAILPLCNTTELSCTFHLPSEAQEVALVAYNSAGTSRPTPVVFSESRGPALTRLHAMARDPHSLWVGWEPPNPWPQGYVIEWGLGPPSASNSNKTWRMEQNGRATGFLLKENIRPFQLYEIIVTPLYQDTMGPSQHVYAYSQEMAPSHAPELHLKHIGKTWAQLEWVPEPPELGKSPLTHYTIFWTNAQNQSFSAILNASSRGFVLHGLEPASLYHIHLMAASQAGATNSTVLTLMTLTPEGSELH
Experimental: (§1) To obtain a more detailed picture on the nature of the binding, the inventors fitted the highest concentration sensorgram curves using higher order kinetics models. […] While this higher-order interaction model better explains the data than a 1:1 binding model, a clear deviation remained for rhG-CSF sensorgrams.
(§2) Single-cycle kinetics experiments were performed on a Biacore X100 system (GE Healthcare Life Sciences). G-CSF Receptor (G-CSFR) (R&D systems 381-GR-050/CF) was diluted to 50 μg/ml in 10 mM acetate buffer pH 5.0 and immobilized on the surface of a CM5 sensor chip (GE Healthcare 29149604) using standard amine coupling chemistry. The designs and rhG-CSF (USP RS Filgrastim, Sigma-Aldrich 1270435) were diluted in running buffer (10 mM HEPES, 150 mM NaCl, 3.4 mM EDTA, 0.005% v/v Tween-20). Analyses were conducted at 25° C. at a flow rate of 30 μl/min. Five sequential 10-fold increasing concentrations of the sample solution (for the designs from 0.5 nM to 50 μM, and for rhG-CSF from 0.05 to 500 nM) were injected over the functionalized sensor chip surface for 180 s, followed by a 180 s dissociation with running buffer. At the end of each run, the sensor surface was regenerated with a 240 s injection of 10 mM glycine-HCl pH 2.0. Each experiment was performed two times for rhG-CSF, Boskar3, Boskar4, diSohair2, Moevan, and Moevan_t2. Association rate (ka), dissociation rate (kd), and equilibrium dissociation (Kd) constants were initially obtained by global fitting of the experimental reference-subtracted data to a 1:1 interaction model using the Biacore X100 evaluation software (v.2.0.1).

[3] = molecular target: T1, G-CSF Receptor (G-CSFR) (R&D systems …); assay: SPR, second-order reaction model, value as told in the text; second-order reaction model, highest concentration sensorgram
Experimental: as §1, §2

[4] = molecular target: T1, G-CSF Receptor (G-CSFR) (R&D systems …); assay: SPR, Biacore X100, G-CSFR amine-coupled on CM5, 2nd order kinetics model
Experimental: as §2, with “(v.2.0.1). To evaluate if a kinetics model that depends on double the analyte stoichiometry improves the goodness of fit to the data, the following rate integral was used: […]” for “(v.2.0.1).”

[5] = molecular target: T2, G-CSFR on NFS-60 cells (murine myeloblastic cell line) (mouse, UniProt P40223 26-837); assay: cell-based or functional assay
T2 sequence (looked up): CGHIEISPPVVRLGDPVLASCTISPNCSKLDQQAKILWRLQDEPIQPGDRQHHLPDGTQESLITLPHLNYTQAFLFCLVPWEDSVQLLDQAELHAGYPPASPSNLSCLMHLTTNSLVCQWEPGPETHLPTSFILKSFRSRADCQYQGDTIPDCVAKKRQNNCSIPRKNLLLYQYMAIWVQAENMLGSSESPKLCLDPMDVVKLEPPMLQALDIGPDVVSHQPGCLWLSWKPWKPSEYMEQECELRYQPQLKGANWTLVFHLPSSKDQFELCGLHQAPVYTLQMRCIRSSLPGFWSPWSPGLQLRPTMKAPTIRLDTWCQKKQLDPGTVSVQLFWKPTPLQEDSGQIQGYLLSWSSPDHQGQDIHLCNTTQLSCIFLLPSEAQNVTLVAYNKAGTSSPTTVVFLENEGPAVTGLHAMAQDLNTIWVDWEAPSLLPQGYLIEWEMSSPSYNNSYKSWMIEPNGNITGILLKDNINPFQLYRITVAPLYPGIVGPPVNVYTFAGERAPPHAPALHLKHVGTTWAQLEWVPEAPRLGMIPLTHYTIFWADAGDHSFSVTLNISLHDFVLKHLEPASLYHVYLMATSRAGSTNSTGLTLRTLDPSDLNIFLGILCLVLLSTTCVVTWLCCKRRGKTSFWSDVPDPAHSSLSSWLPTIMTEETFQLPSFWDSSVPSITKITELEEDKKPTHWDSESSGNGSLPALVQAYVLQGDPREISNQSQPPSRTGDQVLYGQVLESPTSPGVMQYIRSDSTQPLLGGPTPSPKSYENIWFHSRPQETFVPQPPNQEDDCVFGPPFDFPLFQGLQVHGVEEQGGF

[6] = molecular target: T1, G-CSF Receptor (G-CSFR) (R&D systems …); assay: SPR, Biacore X100 single-cycle kinetics, G-CSFR amine-coupled on CM5, 1:1 binding model, second run
Experimental: as §2, with “(v.2.0.1). To evaluate if a kinetics model that depends on double the analyte stoichiometry improves the goodness of fit to the data, the following rate integral was used: […]” for “(v.2.0.1).”

[7] = molecular target: T1, G-CSF Receptor (G-CSFR) (R&D systems …); assay: SPR, 1:1 binding, value for the two runs together as told in the text; 1:1 binding, injection dilution series
Experimental: as §1
as §2, with “Association rate (ka), dissociation rate (kd), and equilibrium dissociation (Kd) constants were initially obtained by global fitting of the experimental reference-subtracted data to a 1:1 interaction model using the Biacore X100 evaluation software (v.2.0.1).” left out

[8] = molecular target: T1, G-CSF Receptor (G-CSFR) (R&D systems …); assay: SPR, Biacore X100 single-cycle kinetics, G-CSFR amine-coupled on CM5, 1:1 binding model
Experimental: as §2, with “(v.2.0.1). To evaluate if a kinetics model that depends on double the analyte stoichiometry improves the goodness of fit to the data, the following rate integral was used: […]” for “(v.2.0.1).”

[9] = molecular target: T1, G-CSF Receptor (G-CSFR) (R&D systems …); assay: as above; remark: listed apart in the source
Experimental: To test whether the grafted epitope residues mediate binding of the designs to the G-CSF receptor, the inventors also performed SPR measurements for the Moevan and diSohair2 initial design templates (Moevan_control and diSohair_control, respectively), and no binding was observed (FIG. 20C,F).
as §2, with “(v.2.0.1). To evaluate if a kinetics model that depends on double the analyte stoichiometry improves the goodness of fit to the data, the following rate integral was used: […]” for “(v.2.0.1).”

[10] = molecular target: T1, G-CSF Receptor (G-CSFR) (R&D systems …); assay: SPR, Biacore X100 single-cycle kinetics, G-CSFR amine-coupled on CM5, 1:1 binding model; Table 10 series (Moevan/diSohair2 comparison), 1:1 binding model
[11] = molecular target: T1, G-CSF Receptor (G-CSFR) (R&D systems …); assay: SPR (Biacore), G-CSFR immobilised on the chip, rhG-CSF 4 nM - 64 nM as analyte, five traces with binding model fit [panel A]

- NFS-60 EC50 (ng/mL), proliferation of NFS-60 cells [1]: 0.055 ng/mL
Molecule: csf_2d9q|WILD_TYPE G-CSF (from UniProt P09919 37-204) (ligand)

- Kd [2]: 2600 nM
- koff [2]: 0.0058 s⁻¹
- kon [2]: 2200 M⁻¹ s⁻¹
- Kd [3]: 4400 nM
- Kd [4]: 6000 nM
- koff [4]: 0.0047 s⁻¹
- kon [4]: 780 M⁻¹ s⁻¹
- NFS-60 EC50 (ng/mL), proliferation of NFS-60 cells [5]: 768 ng/mL
- Kd [6]: 16 nM
- koff [6]: 0.0019 s⁻¹
- kon [6]: 120000 M⁻¹ s⁻¹
- Kd [7]: 14 nM
- Kd [8]: 12 nM
- koff [8]: 0.0015 s⁻¹
- kon [8]: 130000 M⁻¹ s⁻¹
B1: Boskar_3 (designed binder)
chain: AALAAVLAEIYKGLAEYQARLQSLEGISPELGPALDALRLDVADFATTIAQAMEENKGPLPQSFLLKALEQIRKIQADAAALREKLAATYPSSQRAAAAVEIAAQLEAFLEKAYEILRHLAAA

- Kd [2]: 5800 nM
- koff [2]: 0.008 s⁻¹
- kon [2]: 1400 M⁻¹ s⁻¹
- Kd [3]: 6100 nM
- Kd [4]: 6400 nM
- koff [4]: 0.0095 s⁻¹
- kon [4]: 1500 M⁻¹ s⁻¹
- NFS-60 EC50 (ng/mL), proliferation of NFS-60 cells [5]: 27 ng/mL
- Kd [6]: 1.7 nM
- koff [6]: 0.0015 s⁻¹
- kon [6]: 890000 M⁻¹ s⁻¹
- Kd [7]: 5.1 nM
- Kd [8]: 8.5 nM
- koff [8]: 0.0045 s⁻¹
- kon [8]: 520000 M⁻¹ s⁻¹
B2: Boskar_4 (designed binder)
chain: AALAAALAEIYKGLAEYQARLKSLEGISPELGPALDALRLDMADFATTMAQAMEEGLDSLPQSFLLKALEQIRKIQADAAALREKLAATYKGNDRAAAAVEIAAQLEAFLEKAYQILRHLAAA

- koff [9]: 0.00049 s⁻¹
- kon [9]: 300000 M⁻¹ s⁻¹
- Kd [2]: 88 nM
- koff [2]: 0.00084 s⁻¹
- kon [2]: 10000 M⁻¹ s⁻¹
- Kd [10]: 1.1 nM
- Kd [3]: 86 nM
- Kd [11]: 1.4 nM
- koff [11]: 0.0004 s⁻¹
- kon [11]: 290000 M⁻¹ s⁻¹
- Kd [4]: 82 nM
- koff [4]: 0.0009 s⁻¹
- kon [4]: 11000 M⁻¹ s⁻¹
- Kd [6]: 0.41 nM
- koff [6]: 0.00026 s⁻¹
- kon [6]: 640000 M⁻¹ s⁻¹
- Kd [8]: 0.36 nM
- koff [8]: 0.00028 s⁻¹
- kon [8]: 790000 M⁻¹ s⁻¹
B3: rhG-CSF (recombinant human G-CSF; USP RS Filgrastim, Sigma-Aldrich 1270435) (ligand)
chain: TPLGPASSLPQSFLLKCLEQVRKIQGDGAALQEKLCATYKLCHPEELVLLGHSLGIPWAPLSSCPSQALQLAGCLSQLHSGLFLYQGLLQALEGISPELGPTLDTLQLDVADFATTIWQQMEELGMAPALQPTQGAMPAFASAFQRRAGGVLVASHLQSFLEVSYRVLRHLAQP
